Measurements: the supplement of paper PMC11316812
± gives the standard deviation of the averaged measurements.

Columns and labels:
hTERT-HMEC = assay: percentage of EdU-negative (G0-arrested) nuclei per well, 72 h; higher = more G0 arrest; conditions: reference: sequence is the full UniProt precursor, the tested protein was the secreted form or ectodomain
MCF7 = assay: as above; conditions: reference: sequence is the full UniProt precursor, the tested protein was the secreted form or ectodomain
[1] = protein concentration 0.0225 µM
[2] = protein concentration 0.0357143 µM
[3] = protein concentration 0.357143 µM
[4] = protein concentration 0.03125 µM
[5] = protein concentration 0.3125 µM
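Further: secreted proteins added to cultured cells, EdU pulse at the end, nuclei found by Hoechst imaging, EdU status from nuclear versus surrounding ring intensity ratio, PBS as neutral control.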

Sequence	percentage of EdU-negative (hTERT-HMEC; [1]) [%]	percentage of EdU-negative (hTERT-HMEC; protein concentration 0.225 µM) [%]	percentage of EdU-negative (MCF7; [1]) [%]	percentage of EdU-negative (MCF7; protein concentration 0.225 µM) [%]	other results
MMSFVQKGSWLLLALLHPTIILAQQEAVEGGCSHLGQSYADRDVWKPEPCQICVCDSGSVLCDDIICDDQELDCPNPEIPFGECCAVCPQPPTAPTRPPNGQGPQGPKGDPGPPGIPGRNGDPGIPGQPGSPGSPGPPGICESCPTGPQNYSPQYDSYDVKSGVAVGGLAGYPGPAGPPGPPGPPGTSGHPGSPGSPGYQGPPGEPGQAGPSGPPGPPGAIGPSGPAGKDGESGRPGRPGERGLPGPPGIKGPAGIPGFPGMKGHRGFDGRNGEKGETGAPGLKGENGLPGENGAPGPMGPRGAPGERGRPGLPGAAGARGNDGARGSDGQPGPPGPPGTAGFPGSPGAKGEVGPAGSPGSNGAPGQRGEPGPQGHAGAQGPPGPPGINGSPGGKGEMGPAGIPGAPGLMGARGPPGPAGANGAPGLRGGAGEPGKNGAKGEPGPRGERGEAGIPGVPGAKGEDGKDGSPGEPGANGLPGAAGERGAPGFRGPAGPNGIPGEKGPAGERGAPGPAGPRGAAGEPGRDGVPGGPGMRGMPGSPGGPGSDGKPGPPGSQGESGRPGPPGPSGPRGQPGVMGFPGPKGNDGAPGKNGERGGPGGPGPQGPPGKNGETGPQGPPGPTGPGGDKGDTGPPGPQGLQGLPGTGGPPGENGKPGEPGPKGDAGAPGAPGGKGDAGAPGERGPPGLAGAPGLRGGAGPPGPEGGKGAAGPPGPPGAAGTPGLQGMPGERGGLGSPGPKGDKGEPGGPGADGVPGKDGPRGPTGPIGPPGPAGQPGDKGEGGAPGLPGIAGPRGSPGERGETGPPGPAGFPGAPGQNGEPGGKGERGAPGEKGEGGPPGVAGPPGGSGPAGPPGPQGVKGERGSPGGPGAAGFPGARGLPGPPGSNGNPGPPGPSGSPGKDGPPGPAGNTGAPGSPGVSGPKGDAGQPGEKGSPGAQGPPGAPGPLGIAGITGARGLAGPPGMPGPRGSPGPQGVKGESGKPGANGLSGERGPPGPQGLPGLAGTAGEPGRDGNPGSDGLPGRDGSPGGKGDRGENGSPGAPGAPGHPGPPGPVGPAGKSGDRGESGPAGPAGAPGPAGSRGAPGPQGPRGDKGETGERGAAGIKGHRGFPGNPGAPGSPGPAGQQGAIGSPGPAGPRGPVGPSGPPGKDGTSGHPGPIGPPGPRGNRGERGSEGSPGHPGQPGPPGPPGAPGPCCGGVGAAAIAGIGGEKAGGFAPYYGDEPMDFKINTDEIMTSLKSVNGQIESLISPDGSRKNPARNCRDLKFCHPELKSGEYWVDPNQGCKLDAIKVFCNMETGETCISANPLNVPRKHWWTDSSAEKKHVWFGESMDGGFQFSYGNPELPEDVLDVHLAFLRLLSSRASQNITYHCKNSIAYMDQASGNVKKALKLMGSNEGEFKAEGNSKFTYTVLEDGCTKHTGEWSKTVFEYRTRKAVRLPIVDIAPYDIGGPDQEFGVDVGPVCFL	4.96 ± 0.66	6.99 ± 0.87	26.55 ± 0.19	27.4 ± 1.2	–
MMVVLLGATTLVLVAVAPWVLSAAAGGKNLKSPQKVEVDIIDDNFILRWNRSDESVGNVTFSFDYQKTGMDNWIKLSGCQNITSTKCNFSSLKLNVYEEIKLRIRAEKENTSSWYEVDSFTPFRKAQIGPPEVHLEAEDKAIVIHISPGTKDSVMWALDGLSFTYSLVIWKNSSGVEERIENIYSRHKIYKLSPETTYCLKVKAALLTSWKIGVYSPVHCIKTTVENELPPPENIEVSVQNQNYVLKWDYTYANMTFQVQWLHAFLKRNPGNHLYKWKQIPDCENVKTTQCVFPQNVFQKGIYLLRVQASDGNNTSFWSEEIKFDTEIQAFLLPPVFNIRSLSDSFHIYIGAPKQSGNTPVIQDYPLIYEIIFWENTSNAERKIIEKKTDVTVPNLKPLTVYCVKARAHTMDEKLNKSSVFSDAVCEKTKPGNTSKIWLIVGICIALFALPFVIYAAKVFLRCINYVFFPSLKPSSSIDEYFSEQPLKNLLLSTSEEQIEKCFIIENISTIATVEETNQTDEDHKKYSSQTSQDSGNYSNEDESESKTSEELQQDFV	–	–	–	–	percentage of EdU-negative (hTERT-HMEC; [2]): 4.55 ± 0.7%; percentage of EdU-negative (hTERT-HMEC; [3]): 5.5 ± 0.82%; percentage of EdU-negative (MCF7; [2]): 23.4 ± 0.79%; percentage of EdU-negative (MCF7; [3]): 31.7 ± 1.5%
MMWPMHTPLLLLTALMVAVAGSASAQSRTLAGGIHATDLNDKSVQCALDFAISEYNKVINKDEYYSRPLQVMAAYQQIVGGVNYYFNVKFGRTTCTKSQPNLDNCPFNDQPKLKEEEFCSFQINEVPWEDKISILNYKCRKV	4.35 ± 0.28	6.17 ± 0.2	25.28 ± 0.24	25.3 ± 2	–
MNAFLLSALCLLGAWAALAGGVTVQDGNFSFSLESVKKLKDLQEPQEPRVGKLRNFAPIPGEPVVPILCSNPNFPEELKPLCKEPNAQEILQRLEEIAEDPGTCEICAYAACTGC	5.03 ± 0.081	5.29 ± 0.21	27.03 ± 0.26	24.3 ± 0.35	–
MNCRELPLTLWVLISVSTAESCTSRPHITVVEGEPFYLKHCSCSLAHEIETTTKSWYKSSGSQEHVELNPRSSSRIALHDCVLEFWPVELNDTGSYFFQMKNYTQKWKLNVIRRNKHSCFTERQVTSKIVEVKKFFQITCENSYYQTLVNSTSLYKNCKKLLLENNKNPTIKKNAEFEDQGYYSCVHFLHHNGKLFNITKTFNITIVEDRSNIVPVLLGPKLNHVAVELGKNVRLNCSALLNEEDVIYWMFGEENGSDPNIHEEKEMRIMTPEGKWHASKVLRIENIGESNLNVLYNCTVASTGGTDTKSFILVRKADMADIPGHVFTRGMIIAVLILVAVVCLVTVCVIYRVDLVLFYRHLTRRDETLTDGKTYDAFVSYLKECRPENGEEHTFAVEILPRVLEKHFGYKLCIFERDVVPGGAVVDEIHSLIEKSRRLIIVLSKSYMSNEVRYELESGLHEALVERKIKIILIEFTPVTDFTFLPQSLKLLKSHRVLKWKADKSLSYNSRFWKNLLYLMPAKTVKPGRDEPEVLPVLSES	–	–	–	–	percentage of EdU-negative (hTERT-HMEC; protein concentration 0.03 µM): 4.552 ± 0.028%; percentage of EdU-negative (hTERT-HMEC; protein concentration 0.3 µM): 15.3 ± 3%; percentage of EdU-negative (MCF7; protein concentration 0.03 µM): 26.3 ± 1.8%; percentage of EdU-negative (MCF7; protein concentration 0.3 µM): 28.5 ± 0.78%
MNCVCRLVLVVLSLWPDTAVAPGPPPGPPRVSPDPRAELDSTVLLTRSLLADTRQLAAQLRDKFPADGDHNLDSLPTLAMSAGALGALQLPGVLTRLRADLLSYLRHVQWLRRAGGSSLKTLEPELGTLQARLDRLLRRLQLLMSRLALPQPPPDPPAPPLAPPSSAWGGIRAAHAILGGLHLTLDWAVRGLLLLKTRL	–	–	–	–	percentage of EdU-negative (hTERT-HMEC; [4]): 4.51 ± 0.15%; percentage of EdU-negative (hTERT-HMEC; [5]): 6.32 ± 0.64%; percentage of EdU-negative (MCF7; [4]): 26.7 ± 0.82%; percentage of EdU-negative (MCF7; [5]): 25.4 ± 0.86%
